Measurements as given in US20200022914A1, “LIPOSOMAL COMPOSITIONS AND SOLID ORAL DOSAGE FORMS COMPRISING THE SAME” (UNIVERSITÄT HEIDELBERG, priority 2017, published 2020).

Assay: Single dose PK study of oral Adalimumab in comparison with intravenous administration
Assay type: in vivo
Conditions: beagle dogs; oral 15 mg in lyophilized liposomes with 1 mol-% cycR9 conjugate in enteric coated capsule vs 3 mg intravenous; comparison of AUC values, ELISA
Description: Single dose PK study of oral Adalimumab (Humira™) in comparison with Adalimumab after intravenous administration. As animals, 2 beagle dogs were used. The oral dose of Adalimumab was 15 mg encapsulated in liposomes containing 1-mol% of the cycR9 conjugate described before. The liposomes were lyophilized and afterwards filled in an enteric coated capsule. The intravenous dose was 3 mg. The blood sampling time points for the oral administration were: 0 (pre-dose), 0:15, 0:30, 1:00, 2:00, 4:00, 8:00, 24:00, 48:00, 96:00 h p.a. The blood sampling time points for the intravenous administration were: 0 (pre-dose), 0:15, 0:30, 1:00, 2:00, 4:00, 8:00, 24:00, 48:00, 96:00 h p.a. All blood samples were analyzed by ELISA measurements (IDKmonitor® Adalimumab drug level ELISA, Immundiagnostik AG, Bensheim).

Adalimumab
bioavailability after oral administration: 3.55%
